31 molecules from patent US20090170766A1, “Chimeric Kunitz Domains and their Use” (BAYER HEALTHCARE AG, priority 2006, published 2009) can be followed below.

Positions count from the first letter of the chain named. Like-named read-outs stand apart in the source and are kept apart here. Positions of bridges follow the written chain, without caps; N, C: chain ends. No end group written: not given here. Where only a bound is given, the exact number is not on record here.

Assay [1] deals with T1, human plasmin (Homo sapiens, UniProt P00747).
T1 construct: enzymatic activities of trypsin, plasmin and plasma kallikrein; purchased Enzyme Research Hplas
The assay is described as follows: Inhibition of plasmin, fluorogenic substrate assay. Format: biochemical. As to the method: (§1) The inhibitory potency of TFPI mut3 on the enzymatic activities of trypsin, plasmin and plasma kallikrein were determined with the aid of fluorogenic substrates in biochemical assays in white 384-well microtitre plates. The assay buffer was composed of 50 mM Tris/Cl, pH 7.4, 100 mM NaCl, 5 mM CaCl2, 0.08% (w/v) BSA. The assay conditions were specifically as follows:
(§2) 10 μl of a serial dilution of TFPI mut3EA were introduced into each well and preincubated with 20 μl of enzyme at RT for 5 min. The reaction was then started by adding 20 μl of substrate to each. The measurement took place after 60-90 min in a Tecan reader with an excitation wavelength of 360 nm and an emission wavelength of 465 nm. Dose-activity plots and half-maximum inhibitory constants (IC50 values) were determined using GraphPad Prism software (version 4.02).

For assay [2], the target named is T2, human plasma kallikrein (Homo sapiens, UniProt P03952).
T2 construct: purchased Calbiochem 420307
Briefly: Inhibition of plasma kallikrein, fluorogenic substrate assay. Format: biochemical. The protocol: as §1, §2

For assay [3], the target named is T3, human plasma kallikrein (human, UniProt P03952). Briefly: cell-based or functional assay.
Assay [4] addresses T4, human trypsin (human, UniProt P07477). The assay is described as follows: cell-based or functional assay.
Assay [5] has as its target T5, human plasmin (human, UniProt P00747). The assay is described as follows: cell-based or functional assay.
Assay [6] deals with T3, human plasma kallikrein.
Assay [7] deals with T4, human trypsin.
In assay [8] the target is T5, human plasmin.
Target sequence in this assay (P00747 97-810 limits assumed): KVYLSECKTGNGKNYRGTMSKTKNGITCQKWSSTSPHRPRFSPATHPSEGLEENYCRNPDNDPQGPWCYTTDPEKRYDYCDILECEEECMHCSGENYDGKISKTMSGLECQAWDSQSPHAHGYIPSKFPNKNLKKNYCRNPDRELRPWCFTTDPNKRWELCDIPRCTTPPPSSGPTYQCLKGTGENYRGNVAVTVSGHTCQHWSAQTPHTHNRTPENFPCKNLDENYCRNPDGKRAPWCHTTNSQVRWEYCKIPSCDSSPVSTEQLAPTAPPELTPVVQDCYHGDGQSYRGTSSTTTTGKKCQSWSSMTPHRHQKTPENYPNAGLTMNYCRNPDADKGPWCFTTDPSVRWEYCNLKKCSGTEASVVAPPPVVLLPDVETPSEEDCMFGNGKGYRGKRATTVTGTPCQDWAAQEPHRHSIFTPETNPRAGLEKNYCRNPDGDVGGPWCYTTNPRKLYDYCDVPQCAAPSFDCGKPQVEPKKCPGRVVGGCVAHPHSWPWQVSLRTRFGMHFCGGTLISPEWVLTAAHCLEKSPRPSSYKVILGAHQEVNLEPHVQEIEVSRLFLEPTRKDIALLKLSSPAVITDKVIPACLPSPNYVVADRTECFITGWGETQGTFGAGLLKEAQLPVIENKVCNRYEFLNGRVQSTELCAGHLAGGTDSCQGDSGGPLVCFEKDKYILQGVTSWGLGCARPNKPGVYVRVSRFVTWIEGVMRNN

T2 sequence (P03952 391-638 limits assumed): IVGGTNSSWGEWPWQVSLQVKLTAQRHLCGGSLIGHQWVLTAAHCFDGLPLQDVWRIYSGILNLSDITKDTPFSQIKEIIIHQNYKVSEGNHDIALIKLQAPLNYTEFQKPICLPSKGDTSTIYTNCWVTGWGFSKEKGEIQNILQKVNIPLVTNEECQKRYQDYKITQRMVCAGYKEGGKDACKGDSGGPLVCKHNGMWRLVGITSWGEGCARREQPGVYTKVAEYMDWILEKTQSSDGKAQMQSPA
T2 sequence (P03952 20-390 partner limits assumed): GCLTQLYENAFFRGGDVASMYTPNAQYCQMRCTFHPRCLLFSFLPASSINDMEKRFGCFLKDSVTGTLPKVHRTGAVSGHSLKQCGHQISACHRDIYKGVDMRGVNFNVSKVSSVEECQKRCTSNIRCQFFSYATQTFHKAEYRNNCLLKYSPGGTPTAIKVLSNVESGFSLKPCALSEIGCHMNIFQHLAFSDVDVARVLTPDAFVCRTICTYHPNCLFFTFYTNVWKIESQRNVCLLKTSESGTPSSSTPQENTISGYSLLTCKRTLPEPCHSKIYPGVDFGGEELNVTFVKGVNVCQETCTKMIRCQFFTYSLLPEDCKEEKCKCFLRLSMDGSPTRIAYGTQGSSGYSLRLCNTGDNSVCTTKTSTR
T1 sequence (P00747 581-810 limits assumed): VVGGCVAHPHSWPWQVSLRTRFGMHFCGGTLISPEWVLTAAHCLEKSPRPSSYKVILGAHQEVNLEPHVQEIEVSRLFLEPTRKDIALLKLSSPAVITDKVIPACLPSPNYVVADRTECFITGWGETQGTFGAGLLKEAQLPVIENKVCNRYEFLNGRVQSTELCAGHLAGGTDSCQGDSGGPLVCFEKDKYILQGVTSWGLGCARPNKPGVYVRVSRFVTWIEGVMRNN
T1 sequence (P00747 97-580 partner limits assumed): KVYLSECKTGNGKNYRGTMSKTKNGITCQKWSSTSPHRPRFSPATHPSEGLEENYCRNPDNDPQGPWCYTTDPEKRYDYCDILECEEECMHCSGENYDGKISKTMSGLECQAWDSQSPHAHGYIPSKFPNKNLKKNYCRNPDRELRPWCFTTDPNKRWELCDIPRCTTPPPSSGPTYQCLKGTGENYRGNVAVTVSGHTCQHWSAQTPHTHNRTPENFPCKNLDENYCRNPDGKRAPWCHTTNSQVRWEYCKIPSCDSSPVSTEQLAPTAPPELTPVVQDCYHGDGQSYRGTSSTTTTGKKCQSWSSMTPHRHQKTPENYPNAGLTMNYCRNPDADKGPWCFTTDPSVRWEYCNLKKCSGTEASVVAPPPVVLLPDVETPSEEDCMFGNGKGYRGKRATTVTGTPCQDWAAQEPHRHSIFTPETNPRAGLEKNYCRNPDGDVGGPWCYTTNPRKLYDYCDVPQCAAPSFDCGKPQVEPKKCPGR

As to “MHSFCAFKADDGPCKAIMKRFWFNIFTRQCEEFIYGGCEGNQNRFESLEECKKMCTRD (disulfide 5-55, 14-38, 30-51) [SEQ ID NO: 9]”, the 50% inhibitory concentration (IC50) (commonly the concentration that gives 50% inhibition) is 497 nM in assay [1] and over 10 nM in assay [2].
Take “EAMHSFCAFKAYTGPCKAAIIRFFFNIFTRQCEEFIYGGCEGNQNRFESLEECKKMCTRD (disulfide 7-57, 16-40, 32-53) [SEQ ID NO: 26]”: the IC50 came to 83 nM in assay [1] and 194 nM in assay [2].
For “MHSFCAFKAETGPCRAAHPRWFFNIFTRQCEEFIYGGCEGNQNRFESLEECKKMCTRD (disulfide 5-55, 14-38, 30-51) [SEQ ID NO: 4]” the same measures were 32 nM and 3 nM.
Regarding “EAMHSFCAFKAVTGPCKARIIRFFFNIFTRQCEEFIYGGCEGNQNRFESLEECKKMCTRD (disulfide 7-57, 16-40, 32-53) [SEQ ID NO: 18]”, the IC50 in assay [1] turned out to be 47 nM; in assay [2], 1.48 nM.
Turning to “MHSFCAFKAETGPCRAAMKRFFFNIFTRQCEEFIYGGCEGNQNRFESLEECKKMCTRD (disulfide 5-55, 14-38, 30-51) [SEQ ID NO: 10]”, the half-inhibitory concentration (IC50) was found to be 27 nM in assay [1] and 48 nM in assay [2].
“EAMHSFCAFKAETGPCRAAHPRWFFNIFTRQCEEFIYGGCEGNQNRFESLEECKKMCTRD (disulfide 7-57, 16-40, 32-53) [SEQ ID NO: 19]”: the concentration for half-maximal inhibition (IC50) amounted to 30 nM in assay [1] and 3 nM in assay [2].
For “MHSFCAFKADDGPCRAAHPRWWFNIFTRQCEEFIYGGCEGNQNRFESLEECKKMCTRD (disulfide 5-55, 14-38, 30-51) [SEQ ID NO: 8]” the same measures were 267 nM and 1 nM.
For “EAMHSFCAFKAVTGPCRAAMKRFWFNIFTRQCEEFIYGGCEGNQNRFESLEECKKMCTRD (disulfide 7-57, 16-40, 32-53) [SEQ ID NO: 31]”, the IC50 in assay [1] amounted to 48 nM; in assay [2], 75 nM.
In the same order, the values of “EAMHSFCAFKAYTGPCRAAIIRFFFNIFTRQCEEFIYGGCEGNQNRFESLEECKKMCTRD (disulfide 7-57, 16-40, 32-53) [SEQ ID NO: 28]” are 77 nM and 8 nM.
Turning to “EAMHSFCAFKAYTGPCKARIIRFFFNIFTRQCEEFIYGGCEGNQNRFESLEECKKMCTRD (disulfide 7-57, 16-40, 32-53) [SEQ ID NO: 25]”, the half-inhibitory concentration (IC50) in assay [1] worked out at 52 nM; in assay [2] it was 1.19 nM.
For “EAMHSFCAFKASTGPCKARIIRFFFNIFTRQCEEFIYGGCEGNQNRFESLEECKKMCTRD (disulfide 7-57, 16-40, 32-53) [SEQ ID NO: 30]”, the half-maximal inhibitory concentration (IC50) in assay [1] stood at 56 nM; in assay [2], 2.34 nM.
For the molecule “EAMHSFCAFKAETGPCRAAHPRWWFNIFTRQCEEFIYGGCEGNQNRFESLEECKKMCTRD (disulfide 7-57, 16-40, 32-53) [SEQ ID NO: 20]”, the IC50 in assay [1] amounted to 24 nM; in assay [2], 2 nM.
In assay [2], “MHSFCAFKADDGPCKAIMKRFFFNIFTRQCEEFIYGGCEGNQNRFESLEECKKMCTRD (disulfide 5-55, 14-38, 30-51) [hTFPI D1, reference compound]” had an IC50 of over 10 nM.
In the case of “EAMHSFCAFKAVTGPCRASFPRWFFNIFTRQCEEFIYGGCEGNQNRFESLEECKKMCTRD (disulfide 7-57, 16-40, 32-53) [SEQ ID NO: 29]”, the half-inhibitory concentration (IC50) in assay [1] stood at 19 nM; in assay [2] it was 16 nM.
In the case of “MHSFCAFKADDGPCRAAMKRFFFNIFTRQCEEFIYGGCEGNQNRFESLEECKKMCTRD (disulfide 5-55, 14-38, 30-51) [SEQ ID NO: 7]”, the IC50 in assay [1] is 195 nM; in assay [2], 11 nM.

B1: human tissue factor pathway inhibitor 1 Kunitz domain 1 (hTFPI D1) (other)
chain: MHSFCAFKADDGPCKAIMKRFFFNIFTRQCEEFIYGGCEGNQNRFESLEECKKMCTRD
On to B1, for which the “Plasma kallikrein IC50 [nM], inhibition of enzymatic activity, fluorogenic substrate” value in assay [3] is over 10000 nM. Also, the “Trypsin IC50 [nM], inhibition of enzymatic activity, fluorogenic substrate” value in assay [4] turned out to be 44 nM. Further, in assay [5], the “Plasmin IC50 [nM], inhibition of enzymatic activity, fluorogenic substrate” value worked out at 559 nM.

B2: TFPI mut13EA (SEQ ID NO: 18) (designed binder)
chain: EAMHSFCAFKAVTGPCKARIIRFFFNIFTRQCEEFIYGGCEGNQNRFESLEECKKMCTRD
Molecule B2 displayed a Plasma kallikrein IC50 [nM], inhibition of enzymatic activity, fluorogenic substrate in assay [6] of 1480 nM. This molecule also showed a Trypsin IC50 [nM], inhibition of enzymatic activity, fluorogenic substrate in assay [7] of 20 nM. Besides, in assay [8], the Plasmin IC50 [nM], inhibition of enzymatic activity, fluorogenic substrate turned out to be 47 nM.

B3: TFPI mut3EA (SEQ ID NO: 19) (designed binder)
chain: B2 chain with V12E, K17R, R19A, I20H, I21P, F23W
modifications: ends and bridges not checked; cysteine pairing not given here
B3 returned a Plasma kallikrein IC50 [nM], inhibition of enzymatic activity, fluorogenic substrate in assay [6] of 3 nM. Besides, the Trypsin IC50 [nM], inhibition of enzymatic activity, fluorogenic substrate in assay [7] amounted to 5 nM. Moreover, in assay [8], the Plasmin IC50 [nM], inhibition of enzymatic activity, fluorogenic substrate came out at 30 nM.

B4: TFPI mut7EA (SEQ ID NO: 25) (designed binder)
chain: B2 chain with V12Y
The molecule B4 gave a Plasma kallikrein IC50 [nM], inhibition of enzymatic activity, fluorogenic substrate in assay [6] of 1190 nM. Besides, in assay [7], the Trypsin IC50 [nM], inhibition of enzymatic activity, fluorogenic substrate turned out to be 38 nM. This molecule also yielded a Plasmin IC50 [nM], inhibition of enzymatic activity, fluorogenic substrate in assay [8] of 52 nM.

B5: TFPI mut4EA (SEQ ID NO: 20) (designed binder)
chain: B2 chain with V12E, K17R, R19A, I20H, I21P, F23W, F24W
Regarding B5, the Plasma kallikrein IC50 [nM], inhibition of enzymatic activity, fluorogenic substrate in assay [6] was determined as 2 nM. In assay [7], this molecule registered a Trypsin IC50 [nM], inhibition of enzymatic activity, fluorogenic substrate of 7 nM. Further, in assay [8], the Plasmin IC50 [nM], inhibition of enzymatic activity, fluorogenic substrate is 24 nM.

B6: TFPI mut11EA (SEQ ID NO: 29) (designed binder)
chain: B2 chain with K17R, R19S, I20F, I21P, F23W
In assay [6], B6 had a Plasma kallikrein IC50 [nM], inhibition of enzymatic activity, fluorogenic substrate of 16 nM. Also, the Trypsin IC50 [nM], inhibition of enzymatic activity, fluorogenic substrate in assay [7] came to 4 nM. The Plasmin IC50 [nM], inhibition of enzymatic activity, fluorogenic substrate in assay [8] amounted to 19 nM.

B7: TFPI mut15EA (SEQ ID NO: 31) (designed binder)
chain: B2 chain with K17R, R19A, I20M, I21K, F24W
For B7, in assay [6], the Plasma kallikrein IC50 [nM], inhibition of enzymatic activity, fluorogenic substrate amounted to 75 nM. This molecule also returned a Trypsin IC50 [nM], inhibition of enzymatic activity, fluorogenic substrate in assay [7] of 1 nM. Besides, the Plasmin IC50 [nM], inhibition of enzymatic activity, fluorogenic substrate in assay [8] stood at 48 nM.

B8: TFPI mut12EA (SEQ ID NO: 30) (designed binder)
chain: B2 chain with V12S
B8: the Plasma kallikrein IC50 [nM], inhibition of enzymatic activity, fluorogenic substrate in assay [6] was determined as 2340 nM. For the same molecule, the Trypsin IC50 [nM], inhibition of enzymatic activity, fluorogenic substrate in assay [7] worked out at 21 nM. In assay [8], this molecule registered a Plasmin IC50 [nM], inhibition of enzymatic activity, fluorogenic substrate of 56 nM.

B9: TFPI mut10EA (SEQ ID NO: 28) (designed binder)
chain: B2 chain with V12Y, K17R, R19A
Molecule B9 registered a Plasma kallikrein IC50 [nM], inhibition of enzymatic activity, fluorogenic substrate in assay [6] of 8 nM. The same molecule returned a Trypsin IC50 [nM], inhibition of enzymatic activity, fluorogenic substrate in assay [7] of 17 nM. Also, the Plasmin IC50 [nM], inhibition of enzymatic activity, fluorogenic substrate in assay [8] was determined as 77 nM.

B10: TFPI mut8EA (SEQ ID NO: 26) (designed binder)
chain: B2 chain with V12Y, R19A
In assay [6], B10 registered a Plasma kallikrein IC50 [nM], inhibition of enzymatic activity, fluorogenic substrate of 194 nM. This molecule also displayed a Trypsin IC50 [nM], inhibition of enzymatic activity, fluorogenic substrate in assay [7] of 64 nM. This molecule had a Plasmin IC50 [nM], inhibition of enzymatic activity, fluorogenic substrate in assay [8] of 83 nM.

B11: TFPI mut4 (SEQ ID NO: 5) (designed binder)
chain: MHSFCAFKAETGPCRAAHPRWWFNIFTRQCEEFIYGGCEGNQNRFESLEECKKMCTRD
Take B11: the Plasma kallikrein IC50 [nM], inhibition of enzymatic activity, fluorogenic substrate in assay [6] is 3 nM. This molecule yielded a Trypsin IC50 [nM], inhibition of enzymatic activity, fluorogenic substrate in assay [7] of 8 nM. For the same molecule, the Plasmin IC50 [nM], inhibition of enzymatic activity, fluorogenic substrate in assay [8] came to 24 nM.

B12: TFPI random (SEQ ID NO: 10) (designed binder)
chain: B1 chain with D10E, D11T, K15R, I17A
The molecule B12 displayed a Plasma kallikrein IC50 [nM], inhibition of enzymatic activity, fluorogenic substrate in assay [6] of 48 nM. This molecule showed a Trypsin IC50 [nM], inhibition of enzymatic activity, fluorogenic substrate in assay [7] of 6 nM. The molecule further showed a Plasmin IC50 [nM], inhibition of enzymatic activity, fluorogenic substrate in assay [8] of 27 nM.

B13: TFPI mut3 (SEQ ID NO: 4) (designed binder)
chain: B11 chain with W22F
In assay [6], B13 returned a Plasma kallikrein IC50 [nM], inhibition of enzymatic activity, fluorogenic substrate of 3 nM. For the same molecule, the Trypsin IC50 [nM], inhibition of enzymatic activity, fluorogenic substrate in assay [7] is 5 nM. Moreover, in assay [8], the Plasmin IC50 [nM], inhibition of enzymatic activity, fluorogenic substrate came out at 32 nM.

B14: TFPI mut2 (SEQ ID NO: 7) (designed binder)
chain: B1 chain with K15R, I17A
For B14, in assay [6], the Plasma kallikrein IC50 [nM], inhibition of enzymatic activity, fluorogenic substrate came out at 11 nM. Further, the Trypsin IC50 [nM], inhibition of enzymatic activity, fluorogenic substrate in assay [7] was 19 nM. Besides, the Plasmin IC50 [nM], inhibition of enzymatic activity, fluorogenic substrate in assay [8] came to 195 nM.

B15: TFPI mut6 (SEQ ID NO: 9) (designed binder)
chain: B1 chain with F22W
The molecule B15 displayed a Plasma kallikrein IC50 [nM], inhibition of enzymatic activity, fluorogenic substrate in assay [6] of over 10000 nM. The Trypsin IC50 [nM], inhibition of enzymatic activity, fluorogenic substrate in assay [7] came out at 36 nM. For the same molecule, the Plasmin IC50 [nM], inhibition of enzymatic activity, fluorogenic substrate in assay [8] is 497 nM.

B16: TFPI mut5 (SEQ ID NO: 8) (designed binder)
chain: B11 chain with E10D, T11D
In assay [6], B16 returned a Plasma kallikrein IC50 [nM], inhibition of enzymatic activity, fluorogenic substrate of 1 nM. In assay [7], this molecule yielded a Trypsin IC50 [nM], inhibition of enzymatic activity, fluorogenic substrate of 266 nM. For the same molecule, in assay [8], the Plasmin IC50 [nM], inhibition of enzymatic activity, fluorogenic substrate amounted to 267 nM.
